Key:
crystal structure = target: the molecule itself; assay: crystal structure
cryo-EM structure = target: the molecule itself; assay: cryo-EM structure

B1: truncated KpFtsZ (residues 11-316) (domain or fragment, Klebsiella pneumoniae, UniProt W9BCK7 11-316, looked up)
chain: AVIKVIGVGGGGGNAVEHMVRERIEGVEFFAVNTDAQALRKTAVGQTIQIGSGITKGLGAGANPEVGRNAADEDREALRAALDGADMVFIAAGMGGGTGTGAAPVVAEVAKDLGILTVAVVTKPFNFEGKKRMAFAEQGITELSKHVDSLITIPNDKLLKVLGRGISLLDAFGAANDVLKGAVQGIAELITRPGLMNVDFADVRTVMSEMGYAMMGSGVASGEDRAEEAAEMAISSPLLEDIDLSGARGVLVNITAGFDLRLDEFETVGNTIRAFASDNATVVIGTSLDPDMNDELRVTVVATGIG
Q: Does B1 bind (crystal structure)?
A: binds

B2: FtsZ from Klebsiella pneumoniae, full length, tag removed (natural protein, UniProt W9BCK7 1-383, looked up)
chain: MFEPMELTNDAVIKVIGVGGGGGNAVEHMVRERIEGVEFFAVNTDAQALRKTAVGQTIQIGSGITKGLGAGANPEVGRNAADEDREALRAALDGADMVFIAAGMGGGTGTGAAPVVAEVAKDLGILTVAVVTKPFNFEGKKRMAFAEQGITELSKHVDSLITIPNDKLLKVLGRGISLLDAFGAANDVLKGAVQGIAELITRPGLMNVDFADVRTVMSEMGYAMMGSGVASGEDRAEEAAEMAISSPLLEDIDLSGARGVLVNITAGFDLRLDEFETVGNTIRAFASDNATVVIGTSLDPDMNDELRVTVVATGIGMDKRPEITLVTNKQVQQPVMDRYQQHGMSPLTQEQKPAAKVVNDNTPQTAKEPDYLDIPAFLRKQAD
Q: Does B2 bind (cryo-EM structure)?
A: binds
